Data taken from the supplement of paper PMC7877785.
± gives the uncertainty stated by the source.

Assay: self-splicing fitness, log relative to wild type (ln ratio); higher = more splicing; Tetrahymena group I intron in knt gene, E. coli kanamycin selection, DiMSum; sequences stand for … in CUCUCU…GGAGGGAAAAGUUAUCAGGCAUGCACCUGGUAGCUAGUCUUUAAACCAAUAGAUUGCAUCGGUUUAAAAGGCAAGACCGUCAAAUUGCGGGAAAGGGGUCAACAGCCGUUCAGUACCAAGUCUCAGGGGAAACUUUGAGAUGGCCUUGCAAAGGGUAUGGUAAUAAGCUGACGGACAUGGUCCUAACCACGCAGCCAAGUCCUAAGUCAACAGAUCUUCUGUUGAUAUGGAUGCAGUUCACAGACUAAAUGUCGGUCGGGGAAGAUGUAUUCUUCUCAUAAGAUAUAGUCGGACCUCUCCUUAAUGGGAGCUAGCGGAUGAAGUGAUGCAACACUGGAGCCGCUGGGAACUAAUUUGUAUGCGAAAGUAUAUUGAUUAGUUUUGGAGUACUCGUGGUCG
How it was run: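 Fitness was computed with DiMSum as the error-weighted combination of replicate fold changes, kanamycin versus none, each normalised to wild type. The library randomised all eight intron nucleotides of the P1ex region, with the intron placed in the knt kanamycin-resistance gene on pET-22b(+) in E. coli BL21(DE3). Six replicate transformations were grown overnight at 37°C or 30°C on LB agar with or without 25 μg/mL kanamycin, plus 100 μg/mL carbenicillin, 50 μM IPTG and 0.2% rhamnose. Pooled colonies were amplicon-sequenced on an Illumina HiSeq 2500.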

Sequence	self-splicing fitness (ln) (30 °C)	self-splicing fitness (ln) (37 °C)
CUCCAGCAAUAUUACGCGUU	-3.65 ± 0.17	-2.01 ± 0.14
UUGGAGCAAUAUUACGGCGG	-2.99 ± 0.33	-1.88 ± 0.22
UACUAGCAAUAUUACGGCCC	-1.47 ± 0.16	-2.36 ± 0.28
ACAAAGCAAUAUUACGAGAA	-2.54 ± 0.28	-2.87 ± 0.35
CUUGAGCAAUAUUACGUGGC	–	-2.41 ± 0.31
ACUGAGCAAUAUUACGAGUA	–	-1.6 ± 0.2
GUUAAGCAAUAUUACGGAGU	-3.71 ± 0.23	-0.486 ± 0.13
ACGGAGCAAUAUUACGUGUU	-3.23 ± 0.13	-2.56 ± 0.16
UAGCAGCAAUAUUACGAAUA	-0.737 ± 0.1	-0.606 ± 0.11
UUCAAGCAAUAUUACGGUGG	-1.54 ± 0.12	-0.439 ± 0.13
UUCUAGCAAUAUUACGAGGC	–	-2.11 ± 0.38
CCUAAGCAAUAUUACGUUAU	-3.35 ± 0.17	-2.85 ± 0.24
CCCGAGCAAUAUUACGGACA	-2.72 ± 0.16	-1.19 ± 0.12
UGAUAGCAAUAUUACGGAGU	-3.8 ± 0.37	-2.42 ± 0.41
UCAUAGCAAUAUUACGGUGU	-3.51 ± 0.21	-1.27 ± 0.13
CGACAGCAAUAUUACGUCGU	-4.07 ± 0.19	-2.29 ± 0.11
UAUUAGCAAUAUUACGAGGA	-2.33 ± 0.19	-1.54 ± 0.18
GUUCAGCAAUAUUACGCCUG	-1.97 ± 0.2	-0.936 ± 0.22
AACAAGCAAUAUUACGAAUG	-3 ± 0.14	-1.97 ± 0.12
CGUUAGCAAUAUUACGGUCC	–	-1.08 ± 0.48
CCGCAGCAAUAUUACGCUCA	–	-1.28 ± 0.21
CUGUAGCAAUAUUACGUGUA	-4.12 ± 0.3	-2.05 ± 0.21
GUCAAGCAAUAUUACGGGAG	-3.23 ± 0.1	-1.07 ± 0.081
ACUUAGCAAUAUUACGCUCG	-0.969 ± 0.1	-0.233 ± 0.16
CUGCAGCAAUAUUACGGACU	-3.58 ± 0.21	-1.33 ± 0.15

Sequence	self-splicing fitness (ln) (30 °C)	self-splicing fitness (ln) (37 °C)
CGGCAGCAAUAUUACGAAUG	0.0635 ± 0.086	-0.00804 ± 0.099
AGUCAGCAAUAUUACGUGUC	-2.18 ± 0.13	-2.11 ± 0.19
UGGGAGCAAUAUUACGUAUC	-3.59 ± 0.39	-2.56 ± 0.33
CCCGAGCAAUAUUACGUCCG	-2.11 ± 0.4	-1.98 ± 0.36
GUUAAGCAAUAUUACGUAAA	-1.45 ± 0.12	-1.43 ± 0.12
AUGCAGCAAUAUUACGAGUG	-2.88 ± 0.11	-1.64 ± 0.11
ACAGAGCAAUAUUACGUAGG	-3.59 ± 0.14	-1.61 ± 0.13
ACUUAGCAAUAUUACGGGUG	-1.14 ± 0.059	-0.754 ± 0.085
UACUAGCAAUAUUACGCAUG	-1.72 ± 0.099	-0.591 ± 0.12
GCAAAGCAAUAUUACGUAUU	-2.65 ± 0.075	-1.29 ± 0.081
CCACAGCAAUAUUACGAUAA	-3.11 ± 0.25	-2.75 ± 0.32
GUUAAGCAAUAUUACGCUGG	-0.613 ± 0.17	-0.0646 ± 0.2
GGUGAGCAAUAUUACGUUAG	-3.01 ± 0.2	-2.83 ± 0.3
CCACAGCAAUAUUACGUAAG	-0.731 ± 0.038	0.388 ± 0.061
UGCCAGCAAUAUUACGGGUA	-2.25 ± 0.15	-1.24 ± 0.15
CGCAAGCAAUAUUACGGCUC	-1.94 ± 0.14	-1.43 ± 0.15
CCAUAGCAAUAUUACGGCAA	-3.37 ± 0.28	-2.9 ± 0.3
GCCAAGCAAUAUUACGAUGU	-0.536 ± 0.061	0.0237 ± 0.084
ACUAAGCAAUAUUACGGGGU	-4.13 ± 0.28	-2.2 ± 0.19
AGAUAGCAAUAUUACGGGGA	-3.46 ± 0.31	-3.05 ± 0.35
GAUAAGCAAUAUUACGUAUG	-1.53 ± 0.11	-1.37 ± 0.1
GGCCAGCAAUAUUACGCUUG	-4.13 ± 0.26	-2.58 ± 0.2
CUCUAGCAAUAUUACGAAAG	-2.34 ± 0.2	-2.11 ± 0.34
CGAAAGCAAUAUUACGGGAG	-3.09 ± 0.12	-2.56 ± 0.13
CGUUAGCAAUAUUACGUUAG	-0.796 ± 0.081	-0.539 ± 0.1

Sequence	self-splicing fitness (ln) (30 °C)	self-splicing fitness (ln) (37 °C)
AGUCAGCAAUAUUACGAGGA	-2.97 ± 0.2	-1.73 ± 0.16
UUACAGCAAUAUUACGCGUC	-3.64 ± 0.2	-1.32 ± 0.19
UAUUAGCAAUAUUACGAGAA	–	-2.92 ± 0.47
GGAAAGCAAUAUUACGUAAA	-1.94 ± 0.1	-0.563 ± 0.11
CACGAGCAAUAUUACGGAAG	-3.54 ± 0.21	-2.32 ± 0.2
AUACAGCAAUAUUACGCGCC	-1.06 ± 0.12	-0.66 ± 0.16
UGUUAGCAAUAUUACGUUCG	0.135 ± 0.16	0.292 ± 0.16
CUUUAGCAAUAUUACGCCUA	-3.11 ± 0.3	-1.73 ± 0.3
CUAGAGCAAUAUUACGGAUG	-0.4 ± 0.095	0.311 ± 0.11
UUUAAGCAAUAUUACGAGAA	-1.62 ± 0.33	-0.298 ± 0.28
CGUAAGCAAUAUUACGUCCC	-3.09 ± 0.38	-1.21 ± 0.29
GACUAGCAAUAUUACGGCUG	-1.04 ± 0.079	-0.193 ± 0.087
CUAUAGCAAUAUUACGAGAG	-3.63 ± 0.23	-2.73 ± 0.24
ACCAAGCAAUAUUACGCUAC	-2.89 ± 0.13	-0.773 ± 0.1
AUUGAGCAAUAUUACGGUGU	-1.92 ± 0.15	-2.31 ± 0.37
CUUGAGCAAUAUUACGGAUA	-3.62 ± 0.4	-1.76 ± 0.4
UGUGAGCAAUAUUACGUUCA	-3.06 ± 0.31	-1.56 ± 0.39
ACCUAGCAAUAUUACGUCGC	-2.66 ± 0.18	-0.636 ± 0.15
CAGGAGCAAUAUUACGAUCG	-0.865 ± 0.08	0.258 ± 0.1
GUCAAGCAAUAUUACGAAUG	-4.11 ± 0.22	-1.18 ± 0.1
UGUUAGCAAUAUUACGGCUC	-2.55 ± 0.22	0.0795 ± 0.15
GCUAAGCAAUAUUACGAUUU	-0.73 ± 0.065	0.0848 ± 0.075
CAAAAGCAAUAUUACGACUG	-0.738 ± 0.068	0.168 ± 0.099
CAUGAGCAAUAUUACGUUUG	-3.57 ± 0.16	-2.89 ± 0.2
CGCAAGCAAUAUUACGGACC	-1.72 ± 0.1	-0.3 ± 0.14

Sequence	self-splicing fitness (ln) (30 °C)	self-splicing fitness (ln) (37 °C)
CGAAAGCAAUAUUACGUUAA	-2.27 ± 0.15	-1.42 ± 0.12
CCAGAGCAAUAUUACGCGAU	–	-2.21 ± 0.33
GGAGAGCAAUAUUACGUGUU	-4.51 ± 0.37	-1.64 ± 0.31
GAGCAGCAAUAUUACGAAGG	–	-2.79 ± 0.34
GGAUAGCAAUAUUACGUCGG	-2.62 ± 0.23	-1.86 ± 0.27
AUCAAGCAAUAUUACGUGAG	-0.619 ± 0.046	0.349 ± 0.073
CUAUAGCAAUAUUACGUUAU	-3.27 ± 0.21	-2.38 ± 0.32
AAAAAGCAAUAUUACGAGCA	-0.699 ± 0.076	-0.722 ± 0.091
CAUUAGCAAUAUUACGAUGU	-3.45 ± 0.25	-3.38 ± 0.23
UAGCAGCAAUAUUACGGUAA	-1.32 ± 0.09	-1.13 ± 0.11
GAAGAGCAAUAUUACGGCGA	-1.57 ± 0.2	-0.931 ± 0.25
GACGAGCAAUAUUACGUCGA	-1.82 ± 0.23	–
UCUAAGCAAUAUUACGGCGA	-0.734 ± 0.086	-0.474 ± 0.092
ACAAAGCAAUAUUACGUUAU	-2.81 ± 0.089	-1.5 ± 0.089
UAAAAGCAAUAUUACGACCG	0.0682 ± 0.1	0.499 ± 0.15
CAUCAGCAAUAUUACGAAUU	-1.2 ± 0.11	-1.55 ± 0.14
UUGUAGCAAUAUUACGAGCC	-1.8 ± 0.27	-1.78 ± 0.34
UACUAGCAAUAUUACGAGCG	-0.191 ± 0.088	0.655 ± 0.11
CAUGAGCAAUAUUACGGAUC	–	-2.94 ± 0.33
GCUCAGCAAUAUUACGUGCA	-1.12 ± 0.097	-0.787 ± 0.1
CUCCAGCAAUAUUACGAACA	-3.95 ± 0.43	-2.23 ± 0.21
AACGAGCAAUAUUACGUGCG	-2.23 ± 0.11	-1.92 ± 0.15
GGACAGCAAUAUUACGUACC	-1.81 ± 0.32	–
